Among the data in publication PMC3605307 are Kd values, retold here.

The experiment deals with T1, Recombinant UL141 ectodomain (soluble, released from the Fc fusion), Q6RJQ3.
T1 chain: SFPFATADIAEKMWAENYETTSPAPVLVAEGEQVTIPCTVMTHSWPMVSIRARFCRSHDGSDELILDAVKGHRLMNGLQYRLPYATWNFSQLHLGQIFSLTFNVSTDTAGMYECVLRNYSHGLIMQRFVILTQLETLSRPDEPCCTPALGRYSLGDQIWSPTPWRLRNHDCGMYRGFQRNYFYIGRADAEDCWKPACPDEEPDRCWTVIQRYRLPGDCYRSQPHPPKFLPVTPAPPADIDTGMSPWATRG
The experiment in a line: SPR. The settings on record: chain shown with the change.

Substitutions are numbered along the chain they refer to. In names and notes the source's numbering stands.

B1: Human TRAIL-R2-Fc fusion protein (wild type), O14763 M152A; R154A; K155A (protein)
chain: QQDLAPQQRAAPQQKRSSPSEGLCPPGHHISEDGRDCISCKYGQDYSTHWNDLLFCLRCTRCDSGEVELSPCTTTRNTVCQCEEGTFREEDSPEACAACRTGCPRGMVKVGDCTPWSDIECVHKESG
As to B1, the Kd stood at 7 nM.

B2: Human TRAIL-R2-Fc fusion protein (wild type), O14763 R154A (protein)
chain: B1 chain with A95M, A98K
With B2, the Kd came to 6 nM.

B3: Human TRAIL-R2-Fc fusion protein (wild type), O14763 K155A (protein)
chain: B1 chain with A95M, A97R
Take B3: the Kd stood at 8 nM.

B4: Human TRAIL-R2-Fc fusion protein (wild type), O14763 M152A (protein)
chain: B1 chain with A97R, A98K
In the case of B4, the Kd is 7 nM.

B5: Human TRAIL-R2-Fc fusion protein (wild type), O14763 P150A (protein)
chain: B1 chain with P93A, A95M, A97R, A98K
For the molecule B5, the Kd was found to be 8 nM.
